We go through 17 molecules from patent US20250154261A1 (published 2025).

What is called Kd is the constant that tells how readily two partners part at equilibrium. Higher therefore signals lower affinity. What is called koff is the first-order rate constant of dissociation. One may read the kon as the rate constant with which the complex forms. Read a low kon as slow association.

Where a chain is given by its changes, count along the chain named.

First the molecules themselves.
B1: ADI-10159 IgG (antibody, V domains shown)
VH: EVQLVESGGGLVQPGGSLRLSCAASGFTFSSYGMSWVRQAPGKGLEWVANIKQDGSEKYYVDSVKGRFTISRDNAKNSLYLQMNSLRAEDTAVYYCAREGGPYYDSSGYFVYYGMDVWGQGTTVTVSS
VL: DIQMTQSPSTLSASVGDRVTITCRASQSISSWLAWYQQKPGKAPKLLIYDASSLESGVPSRFSGSGSGTEFTLTISSLQPDDFATYYCQQYESFPTFGGGTKVEIK
notes: IgG; also called Ab1; G59
B2: ADI-11807 Fab (Fab, V domains shown)
VH: EVQLVESGGGLVQPGGSLRLSCAASGFTFGSYWMSWVRQAPGKGLEWVATIKQDGSEKSYVDSVKGRFTISRDNAKNSLYLQMNSLRAEDTAVYYCARPLNAGELDVWGQGTMVTVSS
VL: DIQMTQSPSTLSASVGDRVTITCRASQSISSWLAWYQQKPGKAPKLLIYEASSLESGVPSRFSGSGSGTEFTLTISSLQPDDFATYYCQQSQSYPPITFGGGTKVEIK
notes: Fab fragment; also called Ab5; I07
B3: ADI-11809 Fab (Fab, V domains shown)
VH: B2 VH with G30P, Q53R, S59G
VL: B2 VL
notes: Fab fragment; also called Ab6
B4: ADI-11815 Fab (Fab, V domains shown)
VH: QVQLVQSGAEVKKPGASVKVSCKASGYTFGTYYMHWVRQAPGQGLEWMGIINPSRGSTVYAQKFQGRVTMTRDTSTSTVYMELSSLRSEDTAVYYCARGAGYDDEDMDVWGKGTTVTVSS
VL: DIQMTQSPSSVSASVGDRVTITCRASQGIDSWLAWYQQKPGKAPKLLIYAASSLQSGVPSRFSGSGSGTDFTLTISSLQPEDFATYYCQQAHSYPLTFGGGTKVEIK
notes: Fab fragment; also called Ab7
B5: ADI-10161 Fab (Fab, V domains shown)
VH: EVQLVESGGGLVQPGGSLRLSCAASGFTFSSYWMSWVRQAPGKGLEWVANINQDGSEKYYVDSVKGRFTISRDNAKNSLYLQMNSLRAEDTAVYYCAREGGDSWYHAFDIWGQGTMVTVSS
VL: B4 VL with D30S, S53N, A91K, H92L, Y94L
notes: Fab fragment; also called Ab16
B6: ADI-11812 Fab (Fab, V domains shown)
VH: B4 VH with G30E, T31I, R55S
VL: B4 VL
notes: Fab fragment; also called Ab24
B7: ADI-11835 Fab (Fab, V domains shown)
VH: QLQLQESGPGLVKPSETLSLTCTVSGGSISSTDYYWGWIRQPPGKGLEWIGSIGYSGTYYNPSLKSRVTISVDTSKNQFSLKLSSVTAADTAVYYCARETAHDVHGMDVWGQGTTVTVSS
VL: EIVLTQSPATLSLSPGERATLSCRASHSVYSYLAWYQQKPGQAPRLLIYDASNRATGIPARFSGSGSGTDFTLTISSLEPEDFAVYYCQQYDNLPTFGGGTKVEIK
notes: Fab fragment; also called Ab10; 135 (so in the source)
B8: ADI-10160 Fab (Fab, V domains shown)
VH: EVQLVESGGGLVQPGGSLRLSCAASGFTFSSYWMSWVRQAPGKGLEWVANINQDGSEKYYVDSVKGRFTISRDNAKNSLYLQMNSLRAEDTAVYYCAREANYYGNVGDDYWGQGTLVTVSS
VL: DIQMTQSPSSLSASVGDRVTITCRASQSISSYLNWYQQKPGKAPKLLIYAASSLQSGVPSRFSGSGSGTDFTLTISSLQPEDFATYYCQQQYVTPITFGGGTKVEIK
notes: Fab fragment; also called Ab15
B9: ADI-11825 Fab (Fab, V domains shown)
VH: B8 VH with S30G, S31G, K58E
VL: DIQMTQSPSSLSASVGDRVTITCRASQSIYNYLNWYQQKPGKAPKLLIYAASNLHSGVPSRFSGSGSGTDFTLTISSLQPEDFATYYCQQAFHVPITFGGGTKVEIK
notes: Fab fragment; also called Ab25
B10: ADI-11828 Fab (Fab, V domains shown)
VH: EVQLVESGGGLVQPGGSLRLSCAASGFTFSSYWMSWVRQAPGKGLEWVANINQDGSEVYYVDSVKGRFTISRDNAKNSLYLQMNSLRAEDTAVYYCARDVGPGIAYQGHFDYWGQGTLVTVSS
VL: B9 VL with N31Y, N53S, L54R, H55Q, A91V, F92Y, H93D, V94T, I96L
notes: Fab fragment; also called Ab27
B11: ADI-11830 Fab (Fab, V domains shown)
VH: B10 VH with Q53T
VL: B9 VL with S28V, N31S, N53S, H55K, A91V, F92Y, H93D, V94T, I96L
notes: Fab fragment; also called Ab9
B12: ADI-10164 Fab (Fab, V domains shown)
VH: QVQLQESGPGLVKPSETLSLTCAVSGYSISSGYYWGWIRQPPGKGLEWIGSIYHSGSTNYNPSLKSRVTISVDTSKNQFSLKLSSVTAADTAVYYCARLPPWFGFSYFDLWGRGTLVTVSS
VL: EIVLTQSPATLSLSPGERATLSCRASQSVSSYLAWYQQKPGQAPRLLIYDASNRATGIPARFSGSGSGTDFTLTISSLEPEDFAVYYCQQVDNYPPTFGGGTKVEIK
notes: Fab fragment; also called Ab18
B13: ADI-10157 Fab (Fab, V domains shown)
VH: QVQLQESGPGLVKPSETLSLTCTVSGGSISSYYWSWIRQPPGKGLEWIGSIYYSGSTNYNPSLKSRVTISVDTSKNQFSLKLSSVTAADTAVYYCARVGGVYSTIETYGMDVWGQGTTVTVSS
VL: EIVMTQSPATLSVSPGERATLSCRASQSVSSNLAWYQQKPGQAPRLLIYGASTRATGIPARFSGSGSGTEFTLTISSLQSEDFAVYYCQQYTVYPPTFGGGTKVEIK
notes: Fab fragment; also called Ab13
B14: ADI-11819 Fab (Fab, V domains shown)
VH: EVQLVESGGGLVKPGGSLRLSCAASGFTFSSYAMSWVRQAPGKGLEWVSSISSSSEGIYYADSVKGRFTISRDNAKNSLYLQMNSLRAEDTAVYYCAREGGPYYDSSGYFVYYGMDVWGQGTTVTVSS
VL: B1 VL with Q27N, D50E, L54T, E55K, E92D, S93D, F94L
notes: Fab fragment; also called Ab8
B15: ADI-10159 Fab (Fab, V domains shown)
VH: B1 VH
VL: B1 VL
notes: Fab fragment; also called Ab1; G59
B16: ADI-11839 Fab (Fab, V domains shown)
VH: QVQLVQSGAEVKKPGASVKVSCKASGYTFSNYYMHWVRQAPGQGLEWMGWINPFSGGTRYAQKFQGRVTMTRDTSTSTVYMELSSLRSEDTAVYYCARDVGSSAYYYMDVWGKGTTVTVSS
VL: B4 VL with R24E, Q27K, D30S, S53D, H92F, S93L, Y94F, L96P
notes: Fab fragment; also called Ab28
B17: ADI-11802 Fab (Fab, V domains shown)
VH: QVQLVQSGAEVKKPGASVKVSCKASGYTFSGYYMHWVRQAPGQGLEWMGMINPYGGSTRYAQKFQGRVTMTRDTSTSTVYMELSSLRSEDTAVYYCAREAADGFVGERYFDLWGRGTLVTVSS
VL: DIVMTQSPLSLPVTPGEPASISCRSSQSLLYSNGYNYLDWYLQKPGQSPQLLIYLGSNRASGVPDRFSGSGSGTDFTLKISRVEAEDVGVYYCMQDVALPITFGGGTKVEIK
notes: Fab fragment; also called Ab23

The first assay addresses T1, human CD33 (antigen of the BLI measurement, Table 11) (human, UniProt P20138 18-259, limits assumed).
T1 construct: 100 nM antigen in solution; construct not described; whole entry named
Nature of the assay: BLI, IgG on AHC.
On to B1, for which the Kd amounted to 0.58 nM and the off-rate constant (koff) was 0.0002 s⁻¹.

The next assay has as its target T2, Human CD33 R69G (human, UniProt P20138 18-259). The assay can be described thus: SPR captured Fab.
Turning to B2, the affinity, expressed as Kd, was 0.43 nM; the off-rate constant (koff) amounted to 0.000259 s⁻¹; the association rate constant (kon) was 597000 M⁻¹ s⁻¹.

B3 had a dissociation constant Kd of 0.22 nM, an off-rate (koff) of 0.000179 s⁻¹ and a kon of 815000 M⁻¹ s⁻¹.

In turn, B4 yielded a dissociation constant (Kd) of 4.34 nM, a koff of 0.0013 s⁻¹ and an on-rate (kon) of 300000 M⁻¹ s⁻¹.

In turn, B5 registered a Kd of 48.9 nM, an off-rate (koff) of 0.0307 s⁻¹ and an on-rate (kon) of 629000 M⁻¹ s⁻¹.

In turn, B6 showed a Kd of 6.74 nM, an off-rate constant (koff) of 0.00228 s⁻¹ and a kon of 338000 M⁻¹ s⁻¹.

In turn, B7 yielded a Kd of 0.67 nM, a koff of 0.00205 s⁻¹ and a kon of 3.07e+06 M⁻¹ s⁻¹.

As to B8, the Kd is 63.7 nM, the koff is 0.0533 s⁻¹ and the on-rate (kon) stood at 836000 M⁻¹ s⁻¹.

B9: the equilibrium dissociation constant (Kd) amounted to 3.74 nM, the off-rate (koff) turned out to be 0.00695 s⁻¹ and the kon came out at 1.86e+06 M⁻¹ s⁻¹.

The molecule B10 came in with a Kd of 6.03 nM, a koff of 0.007 s⁻¹ and an association rate constant (kon) of 1.16e+06 M⁻¹ s⁻¹.

For B11, the Kd worked out at 2.94 nM, the off-rate constant (koff) was determined as 0.00663 s⁻¹ and the kon worked out at 2.27e+06 M⁻¹ s⁻¹.

On to B12, for which the equilibrium dissociation constant (Kd) was 113 nM, the dissociation rate constant (koff) is 0.035 s⁻¹ and the on-rate (kon) was 308000 M⁻¹ s⁻¹.

B13 registered a Kd of 17.8 nM, a koff of 0.0287 s⁻¹ and an association rate constant (kon) of 1.56e+06 M⁻¹ s⁻¹.

As for B14, binding was put at a Kd of 0.09 nM, the koff was 0.000244 s⁻¹ and the on-rate (kon) came out at 2.78e+06 M⁻¹ s⁻¹.

Turning to B15, binding was put at a Kd of 5.68 nM, the koff came out at 0.00243 s⁻¹ and the kon was 426000 M⁻¹ s⁻¹.

In another assay the target is Human CD33 S128N (human, UniProt P20138 18-259). The assay can be described thus: SPR captured Fab.
In turn, B5 gave an equilibrium dissociation constant (Kd) of 63.6 nM, a koff of 0.0385 s⁻¹ and an association rate constant (kon) of 605000 M⁻¹ s⁻¹.

As to B16, the dissociation constant Kd came out at 29.5 nM, the koff is 0.0284 s⁻¹ and the kon was determined as 963000 M⁻¹ s⁻¹.

Regarding B6, the Kd is 2.01 nM, the koff came to 0.00112 s⁻¹ and the kon was 556000 M⁻¹ s⁻¹.

In the case of B8, the affinity, expressed as Kd, was 85.7 nM; the off-rate (koff) came to 0.0673 s⁻¹; the association rate constant (kon) came out at 786000 M⁻¹ s⁻¹.

B9: the Kd is 3.09 nM, the koff is 0.00649 s⁻¹ and the kon turned out to be 2.1e+06 M⁻¹ s⁻¹.

Turning to B17, binding was put at a Kd of 0.809 nM, the koff worked out at 0.00059 s⁻¹ and the kon worked out at 662000 M⁻¹ s⁻¹.

In turn, B10 displayed a Kd of 5.41 nM, an off-rate (koff) of 0.00742 s⁻¹ and a kon of 1.37e+06 M⁻¹ s⁻¹.

Regarding B12, the Kd was 279 nM, the koff stood at 0.0539 s⁻¹ and the kon was found to be 193000 M⁻¹ s⁻¹.

B13 had a Kd of 163 nM, an off-rate (koff) of 0.00924 s⁻¹ and an on-rate (kon) of 56500 M⁻¹ s⁻¹.

Another assay has as its target T2, Human CD33 R69G. The assay can be described thus: SPR captured Fab. This is another data set of the same source.
On to B4, for which the dissociation constant (Kd) was 4.34 nM, the koff stood at 0.0013 s⁻¹ and the on-rate constant (kon) came to 300000 M⁻¹ s⁻¹.
